Measurements: the supplement of paper PMC7877785
± gives the uncertainty stated by the source.

Assay: self-splicing fitness, log relative to wild type (ln ratio); higher = more splicing; Tetrahymena group I intron in knt gene, E. coli kanamycin selection, DiMSum; sequences stand for … in CUCUCU…GGAGGGAAAAGUUAUCAGGCAUGCACCUGGUAGCUAGUCUUUAAACCAAUAGAUUGCAUCGGUUUAAAAGGCAAGACCGUCAAAUUGCGGGAAAGGGGUCAACAGCCGUUCAGUACCAAGUCUCAGGGGAAACUUUGAGAUGGCCUUGCAAAGGGUAUGGUAAUAAGCUGACGGACAUGGUCCUAACCACGCAGCCAAGUCCUAAGUCAACAGAUCUUCUGUUGAUAUGGAUGCAGUUCACAGACUAAAUGUCGGUCGGGGAAGAUGUAUUCUUCUCAUAAGAUAUAGUCGGACCUCUCCUUAAUGGGAGCUAGCGGAUGAAGUGAUGCAACACUGGAGCCGCUGGGAACUAAUUUGUAUGCGAAAGUAUAUUGAUUAGUUUUGGAGUACUCGUGGUCG
Outline: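 Fitness was computed with DiMSum as the error-weighted combination of replicate fold changes, kanamycin versus none, each normalised to wild type. The library randomised all eight intron nucleotides of the P1ex region, with the intron placed in the knt kanamycin-resistance gene on pET-22b(+) in E. coli BL21(DE3). Six replicate transformations were grown overnight at 37°C or 30°C on LB agar with or without 25 μg/mL kanamycin, plus 100 μg/mL carbenicillin, 50 μM IPTG and 0.2% rhamnose. Pooled colonies were amplicon-sequenced on an Illumina HiSeq 2500.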

Sequence: AUUCAGCAAUAUUACGAUUC
- self-splicing fitness (ln) (30 °C): -1.62 ± 0.059
- self-splicing fitness (ln) (37 °C): -0.407 ± 0.077

Sequence: AUUCAGCAAUAUUACGAUUG
- self-splicing fitness (ln) (30 °C): -1.88 ± 0.16
- self-splicing fitness (ln) (37 °C): -1.05 ± 0.2

Sequence: AUUCAGCAAUAUUACGAUUU
- self-splicing fitness (ln) (30 °C): 0.203 ± 0.088
- self-splicing fitness (ln) (37 °C): 0.898 ± 0.11

Sequence: AUUCAGCAAUAUUACGCAAU
- self-splicing fitness (ln) (30 °C): -2.4 ± 0.23
- self-splicing fitness (ln) (37 °C): -0.772 ± 0.22

Sequence: AUUCAGCAAUAUUACGCAUG
- self-splicing fitness (ln) (30 °C): -1.3 ± 0.082
- self-splicing fitness (ln) (37 °C): -0.553 ± 0.11

Sequence: AUUCAGCAAUAUUACGCCCC
- self-splicing fitness (ln) (30 °C): 0.0239 ± 0.13
- self-splicing fitness (ln) (37 °C): 0.082 ± 0.23

Sequence: AUUCAGCAAUAUUACGCCGU
- self-splicing fitness (ln) (30 °C): -0.349 ± 0.15
- self-splicing fitness (ln) (37 °C): 0.177 ± 0.14

Sequence: AUUCAGCAAUAUUACGCGAA
- self-splicing fitness (ln) (30 °C): -1.9 ± 0.15
- self-splicing fitness (ln) (37 °C): -1.73 ± 0.17

Sequence: AUUCAGCAAUAUUACGCGUC
- self-splicing fitness (ln) (30 °C): -1.11 ± 0.17
- self-splicing fitness (ln) (37 °C): -0.615 ± 0.21

Sequence: AUUCAGCAAUAUUACGCUCA
- self-splicing fitness (ln) (30 °C): -0.0142 ± 0.092
- self-splicing fitness (ln) (37 °C): -0.0382 ± 0.14

Sequence: AUUCAGCAAUAUUACGGACU
- self-splicing fitness (ln) (30 °C): 0.0759 ± 0.063
- self-splicing fitness (ln) (37 °C): 0.414 ± 0.083

Sequence: AUUCAGCAAUAUUACGGCAU
- self-splicing fitness (ln) (30 °C): -0.321 ± 0.065
- self-splicing fitness (ln) (37 °C): 1.01 ± 0.1

Sequence: AUUCAGCAAUAUUACGGUCU
- self-splicing fitness (ln) (30 °C): -0.633 ± 0.073
- self-splicing fitness (ln) (37 °C): 0.126 ± 0.093

Sequence: AUUCAGCAAUAUUACGGUUC
- self-splicing fitness (ln) (30 °C): -1.64 ± 0.13
- self-splicing fitness (ln) (37 °C): -0.855 ± 0.16

Sequence: AUUCAGCAAUAUUACGUAAC
- self-splicing fitness (ln) (30 °C): -0.841 ± 0.17
- self-splicing fitness (ln) (37 °C): 1.08 ± 0.19

Sequence: AUUCAGCAAUAUUACGUAGU
- self-splicing fitness (ln) (30 °C): -0.994 ± 0.047
- self-splicing fitness (ln) (37 °C): -0.0257 ± 0.069

Sequence: AUUCAGCAAUAUUACGUCAU
- self-splicing fitness (ln) (30 °C): -0.863 ± 0.059
- self-splicing fitness (ln) (37 °C): 0.0811 ± 0.071

Sequence: AUUCAGCAAUAUUACGUGAA
- self-splicing fitness (ln) (30 °C): -0.88 ± 0.065
- self-splicing fitness (ln) (37 °C): -0.398 ± 0.084

Sequence: AUUCAGCAAUAUUACGUGCU
- self-splicing fitness (ln) (30 °C): -2.95 ± 0.2
- self-splicing fitness (ln) (37 °C): -1.81 ± 0.3

Sequence: AUUCAGCAAUAUUACGUUAG
- self-splicing fitness (ln) (30 °C): -3.78 ± 0.15
- self-splicing fitness (ln) (37 °C): -1.52 ± 0.1

Sequence: AUUGAGCAAUAUUACGAAUG
- self-splicing fitness (ln) (30 °C): -2.9 ± 0.21
- self-splicing fitness (ln) (37 °C): -3.15 ± 0.3

Sequence: AUUGAGCAAUAUUACGACGC
- self-splicing fitness (ln) (30 °C): -2.27 ± 0.22
- self-splicing fitness (ln) (37 °C): -2.35 ± 0.28

Sequence: AUUGAGCAAUAUUACGAGCA
- self-splicing fitness (ln) (30 °C): -3.01 ± 0.47
- self-splicing fitness (ln) (37 °C): -1.93 ± 0.42

Sequence: AUUGAGCAAUAUUACGAGGC
- self-splicing fitness (ln) (30 °C): -3.05 ± 0.36
- self-splicing fitness (ln) (37 °C): -2.78 ± 0.4

Sequence: AUUGAGCAAUAUUACGAUAC
- self-splicing fitness (ln) (30 °C): -3.01 ± 0.42
- self-splicing fitness (ln) (37 °C): -1.65 ± 0.34

Sequence: AUUGAGCAAUAUUACGAUUC
- self-splicing fitness (ln) (30 °C): -2.51 ± 0.22
- self-splicing fitness (ln) (37 °C): -2.86 ± 0.47

Sequence: AUUGAGCAAUAUUACGCAAA
- self-splicing fitness (ln) (30 °C): -3.02 ± 0.29

Sequence: AUUGAGCAAUAUUACGCCCG
- self-splicing fitness (ln) (30 °C): -3.02 ± 0.47

Sequence: AUUGAGCAAUAUUACGCCGG
- self-splicing fitness (ln) (30 °C): -2.87 ± 0.33
- self-splicing fitness (ln) (37 °C): -2.53 ± 0.48

Sequence: AUUGAGCAAUAUUACGCUCC
- self-splicing fitness (ln) (30 °C): -1.83 ± 0.44

Sequence: AUUGAGCAAUAUUACGGACU
- self-splicing fitness (ln) (30 °C): -2.64 ± 0.21
- self-splicing fitness (ln) (37 °C): -0.639 ± 0.14

Sequence: AUUGAGCAAUAUUACGGAUC
- self-splicing fitness (ln) (30 °C): -4.03 ± 0.47
- self-splicing fitness (ln) (37 °C): -2.65 ± 0.38

Sequence: AUUGAGCAAUAUUACGGCCC
- self-splicing fitness (ln) (37 °C): 0.679 ± 0.5

Sequence: AUUGAGCAAUAUUACGGCGC
- self-splicing fitness (ln) (30 °C): -0.865 ± 0.23
- self-splicing fitness (ln) (37 °C): -0.384 ± 0.17

Sequence: AUUGAGCAAUAUUACGGCUU
- self-splicing fitness (ln) (30 °C): -2.62 ± 0.21
- self-splicing fitness (ln) (37 °C): -0.8 ± 0.17

Sequence: AUUGAGCAAUAUUACGUAUC
- self-splicing fitness (ln) (30 °C): -1.48 ± 0.36

Sequence: AUUGAGCAAUAUUACGUAUU
- self-splicing fitness (ln) (30 °C): -4.59 ± 0.38
- self-splicing fitness (ln) (37 °C): -1.25 ± 0.16

Sequence: AUUGAGCAAUAUUACGUCAC
- self-splicing fitness (ln) (30 °C): -3.9 ± 0.34
- self-splicing fitness (ln) (37 °C): -2.34 ± 0.39

Sequence: AUUGAGCAAUAUUACGUCCG
- self-splicing fitness (ln) (30 °C): -2.58 ± 0.16
- self-splicing fitness (ln) (37 °C): -2.91 ± 0.48

Sequence: AUUGAGCAAUAUUACGUCGC
- self-splicing fitness (ln) (37 °C): -1.8 ± 0.46
